The labels stand for the following.
B1: Leishmania major profilin, wild type (natural protein)
chain: SWQAYVDDSLIGSGNMHSAAIIGAADGSYWAYGGSYVPQPEEVQHIQKCLSDFSFVQSSGVNIYGVKFFGLQCGTDGDCKYIFFKKGAAGGCIYTTKQAFIVAVYGNPGDTSSLQQDLEKNTAHAVTVNPADCNTTVKRIADYLIKLGY
notes: also called LmProfilin; LmProf-WT

What all share (details): both partners purified
For assay [1], the target named is T1, Leishmania major actin (Leishmania major, UniProt P45520 2-376).
T1 construct: also called LmActin; Leishmania actin
Description: ITC. On the technique in general: ITC needs no label: the signal is the heat of the interaction.

Assay [2] concerns the target T1, Leishmania major actin. The assay is described as follows: crystal structure.
Assay [3] deals with B1. Description: other fluorescence titration.

T1 sequence (P45520 2-376): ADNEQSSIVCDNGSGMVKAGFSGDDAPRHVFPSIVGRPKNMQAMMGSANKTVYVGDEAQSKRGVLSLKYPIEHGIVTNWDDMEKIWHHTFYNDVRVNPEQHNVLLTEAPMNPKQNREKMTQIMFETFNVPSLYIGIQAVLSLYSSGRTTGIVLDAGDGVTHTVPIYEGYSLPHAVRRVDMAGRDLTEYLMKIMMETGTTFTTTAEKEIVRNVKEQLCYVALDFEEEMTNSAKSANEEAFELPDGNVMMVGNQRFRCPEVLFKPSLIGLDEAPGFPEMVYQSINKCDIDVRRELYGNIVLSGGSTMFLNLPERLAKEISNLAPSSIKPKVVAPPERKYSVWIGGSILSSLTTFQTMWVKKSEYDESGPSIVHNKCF

Consider B1, for which the Kd (in general, the free concentration of one partner at which half of the binding sites on the other are occupied at equilibrium, for simple one-to-one binding) with Leishmania major actin [1] is about 0.08 µM. In addition, the stoichiometry N – broadly, a count of units in the complex or per binding partner – with Leishmania major actin [2] turned out to be 1.

B2: poly-L-proline decamer peptide (peptide)
peptide: PPPPPPPPPP
notes: also called poly-L-proline peptide; poly-proline decamer
For B2, the Kd in assay [3] turned out to be 242 ± 38.4 µM.

Values taken from publication doi:10.1101/2023.01.06.522972 (bioRxiv, 2023).
